Test results published in paper PMC8160216.

Target: human M3R-mCit (muscarinic M3 receptor, C-terminally mCitrine-labeled) (human) (UniProt P20309)
Test: FRET or BRET; single permeabilized HEK293T cells (saponin), nucleotides washed out; FRET between M3R-mCitrine and mTurquoise2-Gγ2 of the co-expressed G protein; 10 µM acetylcholine for 1 min, 2 min washout, twice; final GTPγS to induce full dissociation; stability of the complex as AUC of the normalized trace after agonist withdrawal; room temperature, internal buffer pH 7.35

UniProt P20309, sequence (P20309 whole entry): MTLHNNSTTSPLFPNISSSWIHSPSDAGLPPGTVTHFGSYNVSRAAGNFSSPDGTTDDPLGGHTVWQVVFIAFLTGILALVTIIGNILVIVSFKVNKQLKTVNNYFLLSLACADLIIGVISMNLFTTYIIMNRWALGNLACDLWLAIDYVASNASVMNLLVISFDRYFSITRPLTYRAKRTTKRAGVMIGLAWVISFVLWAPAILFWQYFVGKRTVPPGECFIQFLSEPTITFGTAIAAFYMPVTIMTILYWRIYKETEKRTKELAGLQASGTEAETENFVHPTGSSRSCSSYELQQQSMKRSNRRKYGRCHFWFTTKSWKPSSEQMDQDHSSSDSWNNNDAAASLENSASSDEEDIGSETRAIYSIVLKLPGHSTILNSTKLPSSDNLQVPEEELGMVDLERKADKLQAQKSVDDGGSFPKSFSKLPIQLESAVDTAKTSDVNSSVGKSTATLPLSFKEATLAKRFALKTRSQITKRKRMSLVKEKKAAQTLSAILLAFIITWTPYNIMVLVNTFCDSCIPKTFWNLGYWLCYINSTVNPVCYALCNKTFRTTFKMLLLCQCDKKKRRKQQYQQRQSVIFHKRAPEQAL

reduction of the AUC of dissociation relative to Gq	faster dissociation relative to Gq	Substance
< 5%		GqoC11 (Gαq chimera with the C-terminal part of the α5 helix of Gαo, with Gβ1 and mTurq2-Gγ2) (from UniProt P21279 1-348; P59215 344-354; P62873 1-340; P63212 1-71) (complex)
	< 10%	GqoN + C11 (Gαq chimera with the N-terminus and the last 11 amino acids of Gαo, with Gβ1 and mTurq2-Gγ2) (from UniProt P59215 344-354; P62873 1-340; P63212 1-71) (complex)
